One data set concerns IL-8 in Caki-1 cells. As to the kind of experiment: LPA-induced IL-8 production in Caki-1 cells. It is filed as cell-based, human. Particulars: 18:1 LPA (0.2 mM), 0.1-30 μg/mL mAb, 24 h. How it is done: Three anti-LPA mAbs (B3, B7 and B58) were tested for their abilities to reduce in vitro IL-8 production compared to a non-specific antibody (NS). Caki-1 cells were seeded in 96 well plates and grown to confluency. After overnight serum starvation, cells were treated with 18:1 LPA (0.2 mM) with or without anti-LPA mAb B3, B7, B58 or NS (Non-Specific). After 24 h, cultured supernatants of renal cancer cells (Caki-1), treated with or without LPA and in presence of increasing concentrations of the anti-LPA mAbs B3, B7 and B58, were collected and analyzed for IL-8 levels using a commercially available ELISA kit (Human Quantikine Kit, R&D Systems, Minneapolis, Minn.). […] The inhibition of IL-8 release by the anti-LPA mAbs was also observed in other cancerous cell lines such as the pancreatic cell line Panc-1.

Data set [1] is described as follows: Competition ELISA specificity, competitor C1P. Type of data set: binding. Particulars: maximum inhibition, n = 3. On the procedure:
The specificity of the anti-LPA mAbs was assessed for their binding to LPA related biolipids such as distearoyl-phosphatidic acid, lysophosphatidylcholine, S1P, ceramide and ceramide-1-phosphate.

A short description of data set [2]: Pharmacokinetics of Lpathomab in mice. Type of data set: in vivo. How it is done:
Preliminary PK studies were conducted with Lpathomab. For IV dosed groups, mice were injected with a single 30 mg/kg dose and sacrificed at time points up to 15 days. Antibody was also given via i.p. administration and animals were sacrificed during the first 24 hrs to compare levels of mAb in the blood over this period of time for different routes of delivery. Pharmacokinetic parameters were assessed by WinNonlin. Three mice were sacrificed at each time point and plasma samples were collected and analyzed for mAb levels by ELISA.

A short description of data set [3]: Competition ELISA (18:1 LPA coat), competitor 14:0 LPA. Particulars: maximum inhibition (% of binding in the absence of inhibitor). How it is done: Many isoforms of LPA have been identified to be biologically active and it is preferable that the mAb recognize all of them to some extent to be of therapeutic relevance. The specificity of the anti-LPA mAbs was evaluated utilizing a competition assay in which the competitor lipid was added to the antibody-immobilized lipid mixture.
Competition ELISA assays were performed with the anti-LPA mAbs to assess their specificity. 18:1 LPA was captured on ELISA plates. Each competitor lipid (up to 10 uM) was serially diluted in BSA (1 mg/ml)-PBS and then incubated with the mAbs (3 nM). Mixtures were then transferred to LPA coated wells and the amount of bound antibody was measured with a secondary antibody. Data are normalized to maximum signal (A450) and are expressed as percent inhibition. Assays were performed in triplicate. IC50: Half maximum inhibition concentration; MI: Maximum inhibition (% of binding in the absence of inhibitor); - - -: not estimated because of weak inhibition. A high inhibition result indicates recognition of the competitor lipid by the antibody.

The subject of data set [4] is IL-8 release in SKOV3 cells. The data set can be described thus: LPA-induced IL-8 release in SKOV3 cells. Type of data set: cell-based, human. On the procedure:
Anti-LPA antibodies inhibit the LPA-dependant release of human CXCL8/IL-8 in conditioned media of SKOV3 ovarian cells. SKOV3 cells (Lot No 4255558, passage 14) were harvested with 2 ml of 1× Trypsin EDTA (Mediatech Inc, Cat. No 25-053-CV) and resuspended in 8 ml of complete medium (10% FBS, Mediatech Inc. Cat. no 35-011-CV). The cells were centrifuged for 5 min ([…]) and re-suspended in 5 ml of complete medium. Cells were counted in duplicate with 0.4% Trypan blue (10 ul cells plus 90 ul Trypan blue, Invitrogen, Cat. No 15250-061) using a hemocytometer. In a 96-well plate, 1×10^5 cells per well were seeded (final volume 100 ul/well). The cells were allowed to attach and form a confluent monolayer by incubating overnight at 37° C. On the following day, cells were gently washed two times with minimum media (1 mg/ml BSA in McCoy's medium with L-glutamine, Mediatech, Cat. No 10-050-CV). The media was adjusted to 1% penicillin/streptomycin (Mediatech, Cat. No 30-002 CI) and 2.2 g/L sodium-bicarbonate (Mediatech, Cat. No 25-035-CI). Next, the cells were serum-starved at 37° C. for exactly 24 h, followed by cytokine stimulation with 1 uM C18:1 LPA (Avanti, Cat. No 857130) dissolved in 1 mg/ml BSA/PBS (Calbiochem, Cat. No 126575) which was pre-incubated in presence or absence of humanized LPA antibody LT3015 (150, 300 or 600 ug/mL) for one hour. Treatments were then added to the cells. After 22 h of cytokine stimulation, the cells were centrifuged for 5 min (13,500 rpm) at 4° C. and the supernatants (cell-conditioned media) were collected. The CXCL8/IL-8 levels in each supernatant were measured using the Quantikine human CXCL8/IL-8 ELISA kit according to vendor instructions (R&D Systems, Minneapolis Minn., Cat. No D8000C). The IL-6 levels were measured by ELISA using the Quantikine human IL-6 immunoassay kit (R&D systems, Cat. No. D6050). Data were analyzed by one-way ANOVA followed by Bonferroni's post test and expressed as human IL-8 or human IL-6 fold increase.

A short description of data set [5]: Safety, 7 day intravenous injection. It is filed as in vivo, C57BL/6N mice. The conditions noted are these: for triglycerides / liver weights: mean±SD; for triglycerides: in mg/dL (unit assumed); for liver weights: in g (unit assumed). An excerpt: Objective. This study assessed the safety of Lpathomab following intravenous injection of the antibody. C57BL/6N mice received Lpathomab (LT3000) for 7 consecutive days followed by a 7 day recovery period for selected animals of each treatment (recovery groups). Blood samples were collected and processed for multiple study parameters including classical hematology, coagulation time and clinical chemistry. Selected organs were weighed and compared with vehicle only controls.
Study design. Once a day, single iv bolus injections of Lpathomab or vehicle control were given at the following doses: 0, 30, 60, 120, and 240 mg/kg. […] For each animal, necropsy consisted of an external examination, including identification of all clinically recorded lesions, as well as a detailed internal examination.

Setting [6] is: 30-240 mg/kg iv daily x 7 vs control.

B1: LT3000: Murine anti-LPA monoclonal antibody clone B7, IgG1k, renamed Lpathomab, also known as LT3000; hybridoma 504B7.1, ATCC PTA-8420 (antibody, V domains shown)
VH: QVQLQQSGAELVRPGTSVKVSCKASGYGFINYLIEWIKQRPGQGLEWIGLINPGSDYTNYNENFKGKATLTADKSSSTAYMHLSSLTSEDSAVYFCARRFGYYGSGNYFDYWGQGTTLTVSS
VL: DVVMTQTPLSLPVSLGDQASISCTSGQSLVHINGNTYLHWYLQKPGQSPKLLIYKVSNLFSGVPDRFSGSGSGTDFTLKISRVEAEDLGVYFCSQSTHFPFTFGTGTKLEIK
As for B1, the IL-8 expression result in the data set on IL-8 in Caki-1 cells is “significantly reduced in a dose-dependent manner”. Also, in data set [1], the “MI (%), C1P” value was 1.0%. The “time until fully distributed to the blood” value in data set [2] (i.p. administration) was in the range of 6 to 12 h. In data set [2] (i.v. administration, listed as murine antibody), the half-life was roughly 96 h. In addition, the “MI, 14:0 LPA” value in data set [3] was 61.3%. Also, in data set [4] (Lpathomab 300 μg/mL, 1 μM 18:1 LPA, n = 3), the “IL-8 Release, % Inhibition (over LPA taken as 100)” value is 20%. Moreover, the “IL-8 release from ovarian cancer cells” value in data set [4] (in vitro) is recorded as “reduced IL-8 release from ovarian cancer cells in a concentration-dependent manner”. In data set [5] (30-240 mg/kg iv daily x 7), the “weights of brains, hearts, lungs, pituitary glands, ovaries, spleens, testes, thymus glands, thyroid or uterus” value is on record as “No changes were observed”. Besides, the “glucose, cholesterol, ALT or other CBC parameters” value in data set [5] (setting [6]) is recorded as “no statistically significant reductions”. Besides, the hematology parameters result in data set [5] (setting [6]) is given as “no significant differences”. The triglycerides in data set [5] (female mice, 120 mg/kg iv daily x 7, vehicle 89±17) was found to be 36±8; in data set [5] (female mice, 240 mg/kg iv daily x 7, vehicle 89±17), 46±18; in data set [5] (male mice, 240 mg/kg iv daily x 7, vehicle 133±24) it was 50±8. Moreover, the liver weights is recorded as 0.89±0.26 in data set [5] (female mice, 240 mg/kg, vehicle 1.2±0.27); 1.03±0.07 in data set [5] (male mice, 60 mg/kg, vehicle 1.28±0.06); 1.08±0.11 in data set [5] (male mice, 120 mg/kg, vehicle 1.28±0.06); 1.11±0.11 in data set [5] (male mice, 240 mg/kg, vehicle 1.28±0.06).

The values above are taken from patent US8604172B2, “Humanized antibody compositions and methods for binding lysophosphatidic acid” (Lpath, Inc., priority 2009, dated 2013).
